In publication PMC11574045, “A cofactor-induced repressive type of transcription factor condensation can be induced by synthetic peptides to suppress tumorigenesis” (The EMBO Journal, 2024):

B1: ARID3C (protein, UniProt A6NKF2 1-412, looked up)
AT-rich interactive …: MEALQKQQAARLAQGVGPLAPACPLLPPQPPLPDHRTLQAPEGALGNVGAEEEEDAEEDEEKREEAGAEEEAAEESRPGAQGPSSPSSQPPGLHPHEWTYEEQFKQLYELDADPKRKEFLDDLFSFMQKRGTPVNRVPIMAKQVLDLYALFRLVTAKGGLVEVINRKVWREVTRGLSLPTTITSAAFTLRTQYMKYLYPYECETRALSSPGELQAAIDSNRREGRRQAYTATPLFGLAGPPPRGAQDPALGPGPAPPATQSSPGPAQGSTSGLPAHACAQLSPSPIKKEESGIPNPCLALPVGLALGPTREKLAPEEPPEKRAVLMGPMDPPRPCMPPSFLPRGKVPLREERLDGPLNLAGSGISSINMALEINGVVYTGVLFARRQPVPASQGPTNPAPPPSTGPPSSILP
B2: HSBP1 (protein, UniProt O75506 1-76, looked up)
Heat shock factor-binding …: MAETDPKTVQDLTSVVQTLLQQMQDKFQTMSDQIIGRIDDMSSRIDDLEKNIADLMTQAGVEELESENKIPATQKS
B3: HOXC13 (protein, UniProt P31276 1-330, looked up)
Homeobox protein Hox-C13: MTTSLLLHPRWPESLMYVYEDSAAESGIGGGGGGGGGGTGGAGGGCSGASPGKAPSMDGLGSSCPASHCRDLLPHPVLGRPPAPLGAPQGAVYTDIPAPEAARQCAPPPAPPTSSSATLGYGYPFGGSYYGCRLSHNVNLQQKPCAYHPGDKYPEPSGALPGDDLSSRAKEFAFYPSFASSYQAMPGYLDVSVVPGISGHPEPRHDALIPVEGYQHWALSNGWDSQVYCSKEQSQSAHLWKSPFPDVVPLQPEVSSYRRGRKKRVPYTKVQLKELEKEYAASKFITKEKRRRISATTNLSERQVTIWFQNRRVKEKKVVSKSKAPHLHST
B4: HSF1 (protein, UniProt Q00613 1-529, looked up)
Heat shock factor protein 1: MDLPVGPGAAGPSNVPAFLTKLWTLVSDPDTDALICWSPSGNSFHVFDQGQFAKEVLPKYFKHNNMASFVRQLNMYGFRKVVHIEQGGLVKPERDDTEFQHPCFLRGQEQLLENIKRKVTSVSTLKSEDIKIRQDSVTKLLTDVQLMKGKQECMDSKLLAMKHENEALWREVASLRQKHAQQQKVVNKLIQFLISLVQSNRILGVKRKIPLMLNDSGSAHSMPKYSRQFSLEHVHGSGPYSAPSPAYSSSSLYAPDAVASSGPIISDITELAPASPMASPGGSIDERPLSSSPLVRVKEEPPSPPQSPRVEEASPGRPSSVDTLLSPTALIDSILRESEPAPASVTALTDARGHTDTEGRPPSPPPTSTPEKCLSVACLDKNELSDHLDAMDSNLDNLQTMLSSHGFSVDTSALLDLFSPSVTVPDMSLPDLDSSLASIQELLSPQEPPRPPEAENSSPDSGKQLVHYTAQPLFLLDPGSVDTGSNDLPVLFELGEGSYFSEGDGFAEDPTISLLTGSEPPKAKDPTVS
B5: ARID5B (protein, UniProt Q14865 1-1188, looked up)
AT-rich interactive …: MEPNSLQWVGSPCGLHGPYIFYKAFQFHLEGKPRILSLGDFFFVRCTPKDPICIAELQLLWEERTSRQLLSSSKLYFLPEDTPQGRNSDHGEDEVIAVSEKVIVKLEDLVKWVHSDFSKWRCGFHAGPVKTEALGRNGQKEALLKYRQSTLNSGLNFKDVLKEKADLGEDEEETNVIVLSYPQYCRYRSMLKRIQDKPSSILTDQFALALGGIAVVSRNPQILYCRDTFDHPTLIENESICDEFAPNLKGRPRKKKPCPQRRDSFSGVKDSNNNSDGKAVAKVKCEARSALTKPKNNHNCKKVSNEEKPKVAIGEECRADEQAFLVALYKYMKERKTPIERIPYLGFKQINLWTMFQAAQKLGGYETITARRQWKHIYDELGGNPGSTSAATCTRRHYERLILPYERFIKGEEDKPLPPIKPRKQENSSQENENKTKVSGTKRIKHEIPKSKKEKENAPKPQDAAEVSSEQEKEQETLISQKSIPEPLPAADMKKKIEGYQEFSAKPLASRVDPEKDNETDQGSNSEKVAEEAGEKGPTPPLPSAPLAPEKDSALVPGASKQPLTSPSALVDSKQESKLCCFTESPESEPQEASFPSFPTTQPPLANQNETEDDKLPAMADYIANCTVKVDQLGSDDIHNALKQTPKVLVVQSFDMFKDKDLTGPMNENHGLNYTPLLYSRGNPGIMSPLAKKKLLSQVSGASLSSSYPYGSPPPLISKKKLIARDDLCSSLSQTHHGQSTDHMAVSRPSVIQHVQSFRSKPSEERKTINDIFKHEKLSRSDPHRCSFSKHHLNPLADSYVLKQEIQEGKDKLLEKRALPHSHMPSFLADFYSSPHLHSLYRHTEHHLHNEQTSKYPSRDMYRESENSSFPSHRHQEKLHVNYLTSLHLQDKKSAAAEAPTDDQPTDLSLPKNPHKPTGKVLGLAHSTTGPQESKGISQFQVLGSQSRDCHPKACRVSPMTMSGPKKYPESLSRSGKPHHVRLENFRKMEGMVHPILHRKMSPQNIGAARPIKRSLEDLDLVIAGKKARAVSPLDPSKEVSGKEKASEQESEGSKAAHGGHSGGGSEGHKLPLSSPIFPGLYSGSLCNSGLNSRLPAGYSHSLQYLKNQTVLSPLMQPLAFHSLVMQRGIFTSPTNSQQLYRHLAAATPVGSSYGDLLHNSIYPLAAINPQAAFPSSQLSSVHPSTKL
B6: IDB3 (protein, UniProt Q02535 1-119, looked up)
DNA-binding protein inhibitor …: MKALSPVRGCYEAVCCLSERSLAIARGRGKGPAAEEPLSLLDDMNHCYSRLRELVPGVPRGTQLSQVEILQRVIDYILDLQVVLAEPAPGPPDGPHLPIQTAELTPELVISNDKRSFCH
B7: ARID4A (protein, UniProt P29374 1-1257, looked up)
AT-rich interactive …: MKAADEPAYLTVGTDVSAKYRGAFCEAKIKTVKRLVKVKVLLKQDNTTQLVQDDQVKGPLRVGAIVETRTSDGSFQEAIISKLTDASWYTVVFDDGDERTLRRTSLCLKGERHFAESETLDQLPLTNPEHFGTPVIAKKTNRGRRSSLPVTEDEKEEESSEEEDEDKRRLNDELLGKVVSVVSATERTEWYPALVISPSCNDDITVKKDQCLVRSFIDSKFYSIARKDIKEVDILNLPESELSTKPGLQKASIFLKTRVVPDNWKMDISEILESSSSDDEDGPAEENDEEKEKEAKKTEEEVPEEELDPEERDNFLQQLYKFMEDRGTPINKPPVLGYKDLNLFKLFRLVYHQGGCDNIDSGAVWKQIYMDLGIPILNSAASYNVKTAYRKYLYGFEEYCRSANIQFRTVHHHEPKVKEEKKDLEESMEEALKLDQEMPLTEVKSEPEENIDSNSESEREEIELKSPRGRRRIARDVNSIKKEIEEEKTEDKLKDNDTENKDVDDDYETAEKKENELLLGRKNTPKQKEKKIKKQEDSDKDSDEEEEKSQEREETESKCDSEGEEDEEDMEPCLTGTKVKVKYGRGKTQKIYEASIKSTEIDDGEVLYLVHYYGWNVRYDEWVKADRIIWPLDKGGPKKKQKKKAKNKEDSEKDEKRDEERQKSKRGRPPLKSTLSSNMPYGLSKTANSEGKSDSCSSDSETEDALEKNLINEELSLKDELEKNENLNDDKLDEENPKISAHILKENDRTQMQPLETLKLEVGENEQIVQIFGNKMEKTEEVKKEAEKSPKGKGRRSKTKDLSLEIIKISSFGQNEAGSEPHIEAHSLELSSLDNKNFSSATEDEIDQCVKEKKLKRKILGQSSPEKKIRIENGMEMTNTVSQERTSDCIGSEGMKNLNFEQHFERENEGMPSLIAESNQCIQQLTSERFDSPAEETVNIPLKEDEDAMPLIGPETLVCHEVDLDDLDEKDKTSIEDVAVESSESNSLVSIPPALPPVVQHNFSVASPLTLSQDESRSVKSESDITIEVDSIAEESQEGLCERESANGFETNVASGTCSIIVQERESREKGQKRPSDGNSGLMAKKQKRTPKRTSAAAKNEKNGTGQSSDSEDLPVLDNSSKCTPVKHLNVSKPQKLARSPARISPHIKDGEKDKHREKHPNSSPRTYKWSFQLNELDNMNSTERISFLQEKLQEIRKYYMSLKSEVATIDRRRKRLKKKDREVSHAGASMSSASSDTGMSPSSSSPPQNVLAVECR
B8: HMX2 (protein, UniProt A2RU54 1-273, looked up)
Homeobox protein HMX2: MGSKEDAGKGCPAAGGVSSFTIQSILGGGPSEAPREPVGWPARKRSLSVSSEEEEPDDGWKAPACFCPDQHGPKEQGPKHHPPIPFPCLGTPKGSGGSGPGGLERTPFLSPSHSDFKEEKERLLPAGSPSPGSERPRDGGAERQAGAAKKKTRTVFSRSQVYQLESTFDMKRYLSSSERACLASSLQLTETQVKTWFQNRRNKWKRQLSAELEAANMAHASAQTLVSMPLVFRDSSLLRVPVPRSLAFPAPLYYPGSNLSALPLYNLYNKLDY
B9: HNF4G (protein, UniProt Q14541 1-408, looked up)
Hepatocyte nuclear factor …: MNTTDNGVNCLCAICGDRATGKHYGASSCDGCKGFFRRSIRKSHVYSCRFSRQCVVDKDKRNQCRYCRLRKCFRAGMKKEAVQNERDRISTRRSTFDGSNIPSINTLAQAEVRSRQISVSSPGSSTDINVKKIASIGDVCESMKQQLLVLVEWAKYIPAFCELPLDDQVALLRAHAGEHLLLGATKRSMMYKDILLLGNNYVIHRNSCEVEISRVANRVLDELVRPFQEIQIDDNEYACLKAIVFFDPDAKGLSDPVKIKNMRFQVQIGLEDYINDRQYDSRGRFGELLLLLPTLQSITWQMIEQIQFVKLFGMVKIDNLLQEMLLGGASNDGSHLHHPMHPHLSQDPLTGQTILLGPMSTLVHADQISTPETPLPSPPQGSGQEQYKIAANQASVISHQHLSKQKQL
B10: ID4 (protein, UniProt P47928 1-161, looked up)
DNA-binding protein inhibitor …: MKAVSPVRPSGRKAPSGCGGGELALRCLAEHGHSLGGSAAAAAAAAAARCKAAEAAADEPALCLQCDMNDCYSRLRRLVPTIPPNKKVSKVEILQHVIDYILDLQLALETHPALLRQPPPPAPPHHPAGTCPAAPPRTPLTALNTDPAGAVNKQGDSILCR
B11: HSFX1 (protein, UniProt Q9UBD0 1-423, looked up)
Heat shock transcription …: MEDKRSLSMARCEERNSRGQDHGLERVPFPPQLQSETYLHPADPSPAWDDPGSTGSPNLRLLTEEIAFQPLAEEASFRRPHPDGDVPPQGEDNLLSLPFPQKLWRLVSSNQFSSIWWDDSGACRVINQKLFEKEILKRDVAHKVFATTSIKSFFRQLNLYGFRKRRQCTFRTFTRIFSAKRLVSILNKLEFYCHPYFQRDSPHLLVRMKRRVGVKSAPRHQEEDKPEAAGSCLAPADTEQQDHTSPNENDQVTPQHREPAGPNTQIRSGSAPPATPVMVPDSAVASDNSPVTQPAGEWSEGSQAHVTPVAAVPGPAALPFLYVPGSPTQMNSYGPVVALPTASRSTLAMDTTGLPAPGMLPFCHLWVPVTLVAAGAAQPAASMVMFPHLPALHHHCPHSHRTSQYMPASDGPQAYPDYADQST
B12: HSFY1 (protein, UniProt Q96LI6 1-401, looked up)
Heat shock transcription …: MAHVSSETQDVSPKDELTASEASTRSPLCEHTFPGDSDLRSMIEEHAFQVLSQGSLLESPSYTVCVSEPDKDDDFLSLNFPRKLWKIVESDQFKSISWDENGTCIVINEELFKKEILETKAPYRIFQTDAIKSFVRQLNLYGFSKIQQNFQRSAFLATFLSEEKESSVLSKLKFYYNPNFKRGYPQLLVRVKRRIGVKNASPISTLFNEDFNKKHFRAGANMENHNSALAAEASEESLFSASKNLNMPLTRESSVRQIIANSSVPIRSGFPPPSPSTSVGPSEQIATDQHAILNQLTTIHMHSHSTYMQARGHIVNFITTTTSQYHIISPLQNGYFGLTVEPSAVPTRYPLVSVNEAPYRNMLPAGNPWLQMPTIADRSAAPHSRLALQPSPLDKYHPNYN

Test system: HEK293FT cells transfected with TF library
Test: Screening of TF condensates based on fluorescent puncta
Assay type: cell-based
Details: Figure 1B numerical data; TF library screen, one value per transcriptional factor
Method in brief: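 Condensate formation is scored as Alexa 488-labelled puncta after Flag- or GAL4-tag immunostaining of fixed HEK293FT cells expressing individual TFs, with a 12 h glucose-free or glucose-containing culture preceding fixation.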

| Molecule | Z score of condensed fraction |
| --- | --- |
| B1 | 0.4617 |
| B2 | -0.06777 |
| B3 | -0.9976 |
| B4 | -1.041 |
| B5 | -1.099 |
| B6 | -0.588 |
| B7 | 0.8979 |
| B8 | 0.8931 |
| B9 | 0.7637 |
| B10 | -0.9102 |
| B11 | -0.6149 |
| B12 | 0.153 |
